Source: patent US20240402190A1

Biological target: SERCA1a, mouse (endogenous, mouse myotubes) (mouse) (UniProt Q8R429)
Experiment: cell-based or functional assay

Sequence of UniProt Q8R429 (Q8R429 whole entry): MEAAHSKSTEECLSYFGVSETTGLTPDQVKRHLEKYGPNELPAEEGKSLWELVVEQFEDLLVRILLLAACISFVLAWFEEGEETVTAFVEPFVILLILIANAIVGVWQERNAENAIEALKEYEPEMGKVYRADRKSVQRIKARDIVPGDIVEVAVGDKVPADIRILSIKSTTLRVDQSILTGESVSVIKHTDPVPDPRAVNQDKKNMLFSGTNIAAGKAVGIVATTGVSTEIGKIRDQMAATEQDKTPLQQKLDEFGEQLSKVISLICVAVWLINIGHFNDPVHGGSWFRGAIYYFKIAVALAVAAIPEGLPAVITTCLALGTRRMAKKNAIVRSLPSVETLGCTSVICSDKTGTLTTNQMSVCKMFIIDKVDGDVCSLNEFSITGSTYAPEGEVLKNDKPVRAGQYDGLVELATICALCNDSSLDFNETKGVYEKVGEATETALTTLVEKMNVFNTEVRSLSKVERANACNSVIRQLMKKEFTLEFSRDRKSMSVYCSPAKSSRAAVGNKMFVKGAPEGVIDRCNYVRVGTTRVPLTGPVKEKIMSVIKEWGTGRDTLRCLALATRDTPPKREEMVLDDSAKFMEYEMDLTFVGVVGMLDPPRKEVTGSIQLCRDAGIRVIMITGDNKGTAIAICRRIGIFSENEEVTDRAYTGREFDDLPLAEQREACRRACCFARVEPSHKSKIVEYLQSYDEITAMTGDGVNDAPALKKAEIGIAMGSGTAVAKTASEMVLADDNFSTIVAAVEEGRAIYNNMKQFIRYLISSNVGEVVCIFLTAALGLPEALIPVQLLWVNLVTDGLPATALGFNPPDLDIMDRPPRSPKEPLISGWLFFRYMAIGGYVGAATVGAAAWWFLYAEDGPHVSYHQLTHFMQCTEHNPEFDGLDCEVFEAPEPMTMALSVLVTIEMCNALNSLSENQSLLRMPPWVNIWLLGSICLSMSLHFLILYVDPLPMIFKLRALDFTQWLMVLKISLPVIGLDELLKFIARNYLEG

Caffeine response (normalized ratio to vector control)	KCl response (normalized ratio to vector control)	Releasable Ca^2+ level from SR (normalized ratio to vector control)	Substance
0.97	0.94	0.99	NHL-Del (TRIM32 lacking the NHL repeat) expressed in mouse myotubes (from UniProt Q13049 1-357)
1.22	1.27	1.48	wild-type TRIM32 expressed in mouse myotubes (from UniProt Q13049 1-653)
